Assay [1] deals with T1, RSV-N(13-391) (Human respiratory syncytial virus A, UniProt P03418). Kind of assay: biochemical. Conditions: from ΔG = RT ln Kd and IC50 = 2 × Kd; 10 mM Tris-HCl pH 7.5 at 21°C; approximate. The protocol: (§1) Samples of 10 μl containing peptides and proteins as indicated were prepared in buffer composed of 10 mM Tris-HCl (pH 7.5) +0.01% Brij-35 detergent (Pierce Surfact-Amps-35, Thermo Fisher Scientific, Rockford, IL) in low-volume 384-well black polystyrene assay plates (Thermo Fisher Scientific, Hudson, NH). After a 5 minute incubation, fluorescence anisotropy was measured with a Pherastar plate reader (BMG Labtech, Cary, NC) equipped with a filter module having a 485 nm excitation filter and 520 nm emission filters with polarizers. The focal height was 10.8 mm. Each measurement used 50 flashes. The parallel and perpendicular detector gains were set to 392 and 366 in order to produce an anisotropy of about 0.03 in the absence of binding.
The averages of triplicate anisotropy measurements made at each competitor concentration were used to calculate % inhibition using the equation %inhibition=1001–r–rmin/rmax–rmin where r is the anisotropy at the competitor concentration, rmin is the anisotropy with no RSV-N(13-391), and rmax is the anisotropy with no competititor.
(§2) All fluorescence anisotropy measurements were performed at ambient temperature, approximately 21°C.
For the BP5 competition assay, the P protein storage buffer was replaced by repeated concentration using centrifugal ultrafiltration with a Millipore Ultrafree 0.5 unit with Biomax-10 membrane (EMD Millipore, Billerica, MA) and dilution with 10 mM Tris-HCl (pH 7.5). The protein concentration was determined by the method of Bradford using bovine serum albumin as the standard. Serial dilutions of P were prepared in 10 mM Tris-HCl (pH 7.5) +0.01% Brij-35.

Assay [2] addresses T1, RSV-N(13-391). The protocol:
as §1
The averages of triplicate fluorescence anisotropy measurements made at each RSV-N(13-391) concentration were fit to the equation y=yo+aN/Kd+N where y is the anisotropy, yo is the anisotropy of peptide alone, [N] is the RSV-N(13-391) concentration, and yo + a is the anisotropy of fully bound peptide.
as §2

The target of assay [3] is T2, 15N-labeled N(31-252) (Human respiratory syncytial virus A, UniProt P03418).
T2 construct: His6 (N); TEV protease cleavage recognition site (N); made in house; host or cells: E. coli BL21(DE3)pLysS, M9 minimal medium with [15N]; NH4Cl
Kind of assay: 2-D NMR [15N,1H] TROSY titration, chemical shift perturbation. Conditions: 0.15 mM 15N N(31-252); 25 mM HEPES pH 7.5, 100 mM NaCl, 1 mM DTT, 1 mM EDTA; 298 K; global best fit ± standard error of fit; read-out: Kd measured by NMR. Type of assay: binding, human respiratory syncytial virus (strain A2). Here is the method:
NMR spectra were acquired at 298 K with a 600 MHz NMR instrument (Bruker, Billerica MA) equipped with an AVANCE III console and a triple-resonance cryogenic probe. Samples were at pH 7.5 in a 25 mM HEPES buffer containing 100 mM NaCl, 1 mM dithiothreitol, and 1 mM EDTA. The concentration of ^15N labeled RSV N(31-252) was 0.15 mM. Two-dimensional [^15N, ^1H] transverse relaxation optimized spectroscopy (TROSY) experiments were recorded with increasing ligand concentration. Evolution times were approximately 53 ms in the ^1H dimension and 29 ms in the ^15N dimension. The total acquisition time was 28 min per experiment.
To estimate the dissociation constant (Kd) from NMR experiments, ^15N-RSV N(31-252) was titrated with a range of ligand concentrations. The weighted average of chemical shift changes (Δδ(N, H)obs) is calculated using the following equation: ΔδN,Hobs=ΔδHN^2+ΔδΝ/5^2 where ΔδHN and ΔδN are the chemical shift changes of amide protons and nitrogens, respectively. Then Δδ(N, H)obs data were fitted by non-linear regression globally against the total concentration of the subtrate (LT) with the equation: ΔδN,Hobs=ΔδN,HmaxKd+LT+ET‐Kd+LT+ET^2−4LTET/2ET where Δδ(N, H)max is the maximum chemical shift difference, ET is the total concentration of N(31-352) in the solution, and LT is the total concentration of ligand.

Assay [4] has as its target T3, RSV N(13-391), N-terminally truncated nucleocapsid protein (human respiratory syncytial virus, …, UniProt P03418 13-391).
T3 construct: source: E. coli BL21(DE3)pLysS, purified (Ni2+ chelating, Q-Sepharose, Superdex 200)
T3 sequence: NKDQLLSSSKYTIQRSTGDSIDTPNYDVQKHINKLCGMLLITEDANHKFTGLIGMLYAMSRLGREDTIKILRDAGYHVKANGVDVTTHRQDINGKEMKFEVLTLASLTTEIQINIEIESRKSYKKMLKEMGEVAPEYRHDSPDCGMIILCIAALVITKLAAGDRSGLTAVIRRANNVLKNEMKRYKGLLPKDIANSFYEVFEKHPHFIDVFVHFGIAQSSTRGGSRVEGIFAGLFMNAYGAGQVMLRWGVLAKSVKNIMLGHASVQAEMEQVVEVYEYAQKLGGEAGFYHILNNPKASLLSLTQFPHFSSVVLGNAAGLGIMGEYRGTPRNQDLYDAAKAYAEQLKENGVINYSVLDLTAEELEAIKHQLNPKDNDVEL
Kind of assay: SPR; Biacore T200; His10-P immobilised on NTA chip (nickel capture, amine coupling); 100 nM N(13-391) mixed with peptide series; 20 mM HEPES-NaOH pH 7.5, 100 mM NaCl, 1 mM EDTA, 1 mM TCEP, 0.005% Tween 20, 1% DMSO. Conditions: both partners purified. Background: Surface plasmon resonance follows binding to a sensor surface in real time, without labels.

Assay [5] has as its target T3, RSV N(13-391), N-terminally truncated …. Kind of assay: fluorescence polarisation; fluorescence anisotropy, competition with 25 nM BP5 and 75 nM N(13-391), competitor varied; 10 mM Tris-HCl pH 7.5, 0.01% Brij-35; about 21 °C. Conditions: both partners purified.
Assay [6] concerns the target T4, RSV N(31-252), nucleocapsid construct consisting of residues 31-252 (human respiratory syncytial virus, …, UniProt P03418 31-252).
T4 construct: source: E. coli BL21(DE3)pLysS, purified (Ni2+ chelating, Superdex 200)
T4 sequence: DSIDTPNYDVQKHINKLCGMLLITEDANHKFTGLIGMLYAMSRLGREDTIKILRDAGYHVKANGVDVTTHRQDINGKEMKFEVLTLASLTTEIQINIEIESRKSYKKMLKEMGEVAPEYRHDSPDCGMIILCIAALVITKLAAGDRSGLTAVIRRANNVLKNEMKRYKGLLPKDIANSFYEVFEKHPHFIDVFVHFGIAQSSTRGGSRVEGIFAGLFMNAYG
The experiment in a line: NMR titration; 2-D [15N,1H] TROSY of 0.15 mM 15N-labeled N(31-252) with increasing ligand; 25 mM HEPES pH 7.5, 100 mM NaCl, 1 mM DTT, 1 mM EDTA; 298 K. As to conditions: both partners purified.

Assay [7] addresses T3, RSV N(13-391), N-terminally truncated …. The experiment in a line: fluorescence polarisation; fluorescence anisotropy, competition with 25 nM BP5 and 75 nM N(13-391), competitor varied; 10 mM Tris-HCl pH 7.5, 0.01% Brij-35; about 21 °C. As to conditions: both partners purified. This is another data set of the same source.
The target is the same in assay [8]. Kind of assay: fluorescence polarisation; fluorescence anisotropy, direct binding; 100 nM BP1 or 25 nM BP5, N(13-391) varied; 10 mM Tris-HCl pH 7.5, 0.01% Brij-35; about 21 °C. Conditions: both partners purified. For orientation: Polarisation of emitted light reports the rotation of a fluorescent probe.
The target is the same in assay [9]. Kind of assay: fluorescence polarisation. As to conditions: both partners purified.

Where “and” joins values, the source holds several entries; their conditions need not be identical. Equal values may be shown once. Square brackets hold non-standard residues; d marks the D form. Ends that are not written are not given here. Peptide text beside a SMILES is read from it. * marks the point of attachment. BODIPY(FL) = CC1=CC(C)=[N+]2C1=Cc1ccc(CCC(=O)*)n1[B-]2(F)F; pS = N[C@@H](COP(=O)(O)O)C(=O)O

For `CC(C)C[C@H](NC(=O)[C@H](COP(=O)(O)O)NC(=O)[C@H](CC(C)C)NC(=O)[C@H](CC(=O)O)NC(=O)[C@H](CC(N)=O)NC(=O)[C@H](CC(=O)O)NC(=O)[C@H](COP(=O)(O)O)NC(=O)[C@@H](N)CC(=O)O)C(=O)N[C@@H](CCC(=O)O)C(=O)N[C@@H](CC(=O)O)C(=O)N[C@@H](Cc1ccccc1)C(=O)O` [D(pS)DNDL(pS)LEDF] (H-D[pS]DNDL[pS]LEDF-OH), in [1], the “ΔG of binding to RNA-free N(13-391)” value was -8.7 kcal/mol.

For `Cc1cc(C)n2c1C=C1C=CC(CCC(=O)N[C@@H](CC(=O)O)C(=O)N[C@@H](COP(=O)(O)O)C(=O)N[C@@H](CC(=O)O)C(=O)N[C@@H](CC(N)=O)C(=O)N[C@@H](CC(=O)O)C(=O)N[C@@H](CC(C)C)C(=O)N[C@@H](COP(=O)(O)O)C(=O)N[C@@H](CC(C)C)C(=O)N[C@@H](CCC(=O)O)C(=O)N[C@@H](CC(=O)O)C(=O)N[C@@H](Cc3ccccc3)C(=O)O)=[N+]1[B-]2(F)F` [BP5] ({BODIPY(FL)}-D[pS]DNDL[pS]LEDF-OH), in [2] (Kds measured with N(13-391) 1.95 to 2000 nM in triplicate, Figure 1B), the “Effect of KCl concentration (ionic strength) on affinity for N(13-391)” value is listed as “diminished as the ionic strength increased”. Moreover, the “affinity relative to unphosphorylated peptide BP1” value in assay [2] (ratio of Kds for N(13-391)) is on record as “about 10 times”.

Take `CC(C)C[C@H](NC(=O)[C@H](COP(=O)(O)O)NC(=O)[C@H](CC(C)C)NC(=O)[C@H](CC(=O)O)NC(=O)[C@H](CC(N)=O)NC(=O)[C@H](CC(=O)O)NC(=O)[C@H](COP(=O)(O)O)NC(=O)[C@@H](N)CC(=O)O)C(=O)N[C@@H](CCC(=O)O)C(=O)N[C@@H](CC(=O)O)C(=O)N[C@@H](C)C(=O)O` [D(pS)DNDL(pS)LEDA]: the “ΔG of binding to RNA-free N(13-391)” value in assay [1] is -6.0 kcal/mol.

For the molecule `N[C@@H](CC(=O)O)C(=O)N[C@@H](Cc1ccccc1)C(=O)O` [DF, Asp-Phe, reference compound] (H-Asp-Phe-OH), the Kd (as a rule, the equilibrium constant for the complex coming apart) in [3] was determined as 2600 µM.

For the molecule DSDNDLSLEDF, in assay [1], the “ΔG of binding to RNA-free N(13-391)” value was -6.9 kcal/mol.

B1: DSDNDL(pS)LEDF (P C-terminal peptide phosphorylated on the C-terminal serine) (peptide)
peptide: DSDNDL[pS]LEDF
notes: residues 231-241 of RSV phosphoprotein P; N- and C-termini uncapped; source: synthetic peptide (Biopeptide Co.)
For the molecule B1, the IC50 (in general, the concentration at which inhibition is half-maximal) is 31 µM in [4] and 1.51 µM in [5].

B2: peptide 5, D(pS)DNDL(pS)LEDF (doubly phosphorylated P C-terminal peptide) (peptide)
peptide: D[pS]DNDL[pS]LEDF
notes: as for B1
With B2, the Kd in [6] was 74 µM; in [7], around 0.34 µM. Moreover, the IC50 was 13.6 µM in [4]; 0.61 µM and 0.74 µM in assay [5].

B3: BP5, BODIPY-FL labeled peptide 5 (D(pS)DNDL(pS)LEDF) (peptide)
peptide: {BODIPY(FL)}-D[pS]DNDL[pS]LEDF
notes: C-terminal 11 residues (231-241) of RSV phosphoprotein P; C-terminus uncapped; source: synthetic peptide (Biopeptide Co.), labelled with BODIPY FL SSE, purified on Sephadex LH-20
Molecule B3 returned a Kd in assay [8] of 0.078 µM.

B4: peptide 1, DSDNDLSLEDF (unphosphorylated P C-terminal peptide) (peptide)
peptide: DSDNDLSLEDF
notes: as for B1
Take B4: the values for the IC50 in assay [4] and in [5] were 230 µM and 15.3 µM, respectively. The same molecule yielded a Kd in [7] of around 7.6 µM.

B5: D(pS)DNDLSLEDF (P C-terminal peptide phosphorylated on the N-terminal serine) (peptide)
peptide: D[pS]DNDLSLEDF
notes: as for B1
For the molecule B5, the concentration for half-maximal inhibition (IC50) was determined as 44 µM in assay [4] and 2.17 µM in assay [5].

B6: BP1, BODIPY-FL labeled peptide 1 (DSDNDLSLEDF) (peptide)
peptide: {BODIPY(FL)}-DSDNDLSLEDF
notes: as for B3
Consider B6, for which, in assay [8], the Kd was determined as 0.76 µM.

B7: D(pS)DNDL(pS)LEDA (doubly phosphorylated P C-terminal peptide, C-terminal Phe changed to Ala) (peptide)
peptide: D[pS]DNDL[pS]LEDA
notes: source: synthetic peptide (Biopeptide Co.)
B7 displayed an IC50 in assay [9] of 69 µM.

B8: DSDNDLSLEDA (unphosphorylated P C-terminal peptide, C-terminal Phe changed to Ala) (peptide)
peptide: DSDNDLSLEDA
notes: also called Ala-modified peptide; source: synthetic peptide (Biopeptide Co.)
In [9], B8 came in with a half-maximal inhibitory concentration (IC50) above 200 µM.

The record behind these values is paper PMC4239318, “Quantitative investigation of the affinity of human respiratory syncytial virus phosphoprotein C-terminus binding to nucleocapsid protein” (Virology Journal, 2014).
